We go through 1 substance from PMC11241417.

The target of this assay is URH1p riboside hydrolase from Saccharomyces cerevisiae (S. cerevisiae) (UniProt Q04179). In words: AUC; sedimentation velocity, absorbance 280 nm, 45,000 rpm; samples kept at 4 °C for two weeks; 2.6, 5.2, 10.4 and 15.6 µM; monomer to disulphide-linked dimer.

One may read the stoichiometry N as the number of molecules, sites or subunits per partner or assembly. “URH1p riboside hydrolase from Saccharomyces cerevisiae (from UniProt Q04179 2-340) (enzyme)”: the ratio between monomeric and dimeric URH1p in the sample came out at 33%; the stoichiometry N turned out to be 2.
